The text below walks through data of paper PMC12678800.

The target of one data set is T1, TkoTpt1 (Thermococcus kodakarensis, UniProt Q5JFX3 1-180).
T1 sequence: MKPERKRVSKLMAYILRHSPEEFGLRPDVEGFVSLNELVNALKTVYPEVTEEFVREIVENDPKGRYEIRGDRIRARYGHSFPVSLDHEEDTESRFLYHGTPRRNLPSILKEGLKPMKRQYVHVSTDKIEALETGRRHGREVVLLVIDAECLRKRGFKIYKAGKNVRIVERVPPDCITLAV
The experiment in a line: X-ray crystallography.

In a further data set the target is T2, TkoTpt1 K63A (Thermococcus kodakarensis, UniProt Q5JFX3 1-180, K63A).
T2 sequence: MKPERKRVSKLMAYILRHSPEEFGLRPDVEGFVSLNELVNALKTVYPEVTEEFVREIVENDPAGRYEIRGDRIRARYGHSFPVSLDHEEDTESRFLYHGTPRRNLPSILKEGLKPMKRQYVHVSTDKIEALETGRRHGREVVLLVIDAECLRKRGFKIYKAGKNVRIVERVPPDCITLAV
The data set is described as follows: X-ray crystallography.

For the molecule AAAAAAAAAA (ssDNA, 5'-phosphate (lost to NAD+ in the Appr>P complexes, giving 5'-OH DNA)) [5'-p-DNA (oligo dA10)], the binding result in the data set with TkoTpt1 is on record as “binds”.
As for AAAAAAAAAA (ssDNA, 5'-phospho-ADP-ribosylated, formed in situ from 5'-p-DNA and NAD+) [5'-p-ADPR-DNA (dA10 intermediate)], in the data set with TkoTpt1 K63A, the binding result is given as “binds”.
